In the supplement of paper PMC9170038:

Tested on: MS2 coat protein
Assay: apparent KD of MS2 coat protein; higher = weaker reporter binding
Settings: Eterna round: R107
How it was run: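 Illumina sequencing clusters served as templates for on-chip transcription of the designed RNA switches. SNAP-549-labelled MS2 coat protein was then titrated in twofold steps from 0.7 or 1.5 nM to 3 µM, allowing 0.8–1.5 h per step at first and 10–20 min per step later. The buffer held 100 mM Tris-HCl pH 7.5, 80 mM KCl and 4 mM MgCl2, without or with constant ligand. Apparent KD is the median per design of normalised cluster binding-curve fits.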

[1] = input ligand: theophylline 20 uM
[2] = input ligand: theophylline 2 mM
[3] = input ligand: tryptophan 2.4 mM

ACAUUUAACUGAAGGAGCGUGAUAAACAUGAGGAUCACCCAUGUACCACAGAUUCUUAGAUCACAGGUAGGUCGCAGACUAAUGA [JR_ExcArginiB_Sub013]
apparent KD of MS2 coat protein (input ligand: arginine 13.2 mM): 11.2 nM | apparent KD of MS2 coat protein (input ligand: none): 11.7 nM | apparent KD of MS2 coat protein [1]: 13.7 nM | apparent KD of MS2 coat protein [2]: 12.6 nM | apparent KD of MS2 coat protein [3]: 12.4 nM

ACAUGAGGAUCACCCAUGUAUUACCGGGAAGGAGCGCGUGAAAACGCAGGUAGGUCGCUCGGCGUCGUGCUGUAAAGCACGACGA [#1 Same State - Arginine A Attempt #25 (HarryS)]
apparent KD of MS2 coat protein (input ligand: arginine 13.2 mM): 13.3 nM | apparent KD of MS2 coat protein (input ligand: none): 11.5 nM | apparent KD of MS2 coat protein [1]: 16.2 nM | apparent KD of MS2 coat protein [2]: 15.6 nM | apparent KD of MS2 coat protein [3]: 13.4 nM

GCACUACAUGAGGAUCACCCAUGUGCAGAUACCAGAGGUGUAUGCCUCCCUUGGCAGCUGAGUAGGUCUGGAGGGCUAUUGGUUU [Same State Theophylline A GF14]
apparent KD of MS2 coat protein (input ligand: arginine 13.2 mM): 17.8 nM | apparent KD of MS2 coat protein [1]: 27.8 nM | apparent KD of MS2 coat protein [3]: 18.2 nM

AUCGUACCUGAUGAUACCAGCAUGUGCUCGUAACAUGAGGAUCACCCAUGUGAUCAGUGAUGCCCUUGGCAGCAUGAUCGGUACA [Same State - Theophylline B (Freestyle 16)]
apparent KD of MS2 coat protein (input ligand: arginine 13.2 mM): 67 nM | apparent KD of MS2 coat protein (input ligand: none): 66 nM | apparent KD of MS2 coat protein [1]: 49.2 nM | apparent KD of MS2 coat protein [2]: 14.1 nM | apparent KD of MS2 coat protein [3]: 61.2 nM

CACAUGAGGAUCACCCAUGUCUGAACUGAAGGAGCGCUAAAUAAGGCAGGUAGGUCGCGGAAUUUUGUGUGCAUAUGCAUAUGGG [9.M]
apparent KD of MS2 coat protein (input ligand: arginine 13.2 mM): 23.8 nM | apparent KD of MS2 coat protein (input ligand: none): 26.8 nM | apparent KD of MS2 coat protein [1]: 37.2 nM | apparent KD of MS2 coat protein [2]: 34.2 nM | apparent KD of MS2 coat protein [3]: 28.8 nM

ACAUGAGGAUCACCCAUGUGUGUAAGUCCUCGAGGACCGGUACGGCCGCCACUCGAUUGAGUGUAAGUUGAAUGUAACAUUCAAC [whbob_SS_trypto A_2s10]
apparent KD of MS2 coat protein (input ligand: arginine 13.2 mM): 16.4 nM | apparent KD of MS2 coat protein [1]: 22.8 nM | apparent KD of MS2 coat protein [2]: 18.1 nM

GUAUCUAUGUGAAAUAGAUAUAUAACUGAAGGAGCGUCAUUAAGGACAGGUAGGUCGCAGAGCACCUGAGGAUCACCCAGGUAGG [Arg A SS s1]
apparent KD of MS2 coat protein (input ligand: arginine 13.2 mM): 27 nM | apparent KD of MS2 coat protein (input ligand: none): 25.7 nM | apparent KD of MS2 coat protein [1]: 27 nM | apparent KD of MS2 coat protein [2]: 31.6 nM | apparent KD of MS2 coat protein [3]: 27.2 nM

AUAACAUGAGGAUCACCCAUGUAAGCUGAAGGAGCGGACGAAAGUCCAGGUAGGUCGCAGCGUUCCUUCACCUCAUGAGAAGGAG [SSArg-A #30 with U all better]
apparent KD of MS2 coat protein (input ligand: arginine 13.2 mM): 17.8 nM | apparent KD of MS2 coat protein (input ligand: none): 22.5 nM | apparent KD of MS2 coat protein [1]: 37.5 nM | apparent KD of MS2 coat protein [2]: 24 nM | apparent KD of MS2 coat protein [3]: 21.6 nM

GGUCUCUGGAGCGAUACCAGCUUGAGUGUACUGGCCAGGUACAUGAGGAUCACCCAUGUAAGCCCUUGGCAGCGCUGCAGAGACC [#1 Exclusion - Theophylline B Attempt #16 (HarryS)]
apparent KD of MS2 coat protein (input ligand: arginine 13.2 mM): 9.75 nM | apparent KD of MS2 coat protein [1]: 15 nM | apparent KD of MS2 coat protein [3]: 11.2 nM

UUUACAUGAGGAUCACCCAUGUGCCAUGAUACCAGACAUGAAAAUGUCCCUUGGCAGCAUGAAUAAUCCUCGUCGGGAAACCGAC [Lisen]
apparent KD of MS2 coat protein (input ligand: arginine 13.2 mM): 110 nM | apparent KD of MS2 coat protein [1]: 195 nM | apparent KD of MS2 coat protein [3]: 70.8 nM
